Experimental findings from publication PMC5433938 are described below.

The target of assay [1] is T1, estrogen receptor alpha (ERα) (human (endogenous in MCF-7 and T-47D)), P03372.
T1 chain: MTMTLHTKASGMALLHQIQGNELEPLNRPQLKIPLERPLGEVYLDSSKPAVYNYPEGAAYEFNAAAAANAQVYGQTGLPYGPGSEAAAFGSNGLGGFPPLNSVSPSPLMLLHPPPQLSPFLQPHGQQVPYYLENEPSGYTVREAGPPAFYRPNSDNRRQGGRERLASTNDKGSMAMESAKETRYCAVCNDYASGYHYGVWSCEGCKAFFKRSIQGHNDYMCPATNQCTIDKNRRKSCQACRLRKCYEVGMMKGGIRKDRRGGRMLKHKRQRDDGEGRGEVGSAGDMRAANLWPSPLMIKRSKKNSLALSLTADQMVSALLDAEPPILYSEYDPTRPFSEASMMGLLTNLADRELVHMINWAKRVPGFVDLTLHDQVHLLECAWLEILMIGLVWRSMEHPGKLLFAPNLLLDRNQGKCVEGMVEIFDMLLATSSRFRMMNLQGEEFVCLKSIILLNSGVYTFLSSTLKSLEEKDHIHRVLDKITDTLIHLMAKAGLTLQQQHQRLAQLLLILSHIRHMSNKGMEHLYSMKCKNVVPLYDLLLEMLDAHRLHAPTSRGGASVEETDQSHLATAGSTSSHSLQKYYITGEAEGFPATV
Description: structured illumination microscopy (N-SIM) of double immunofluorescence; T-47D cells, formalin-fixed paraffin cell-block sections; two primary antibodies, Alexa Fluor 488 and 594 secondaries; % of ER dimer = yellow area/(yellow + green + red areas) x 100. Particulars: remark: other sources report otherwise.

Assay [2] deals with T1, estrogen receptor alpha (ERα) (human …). Nature of the assay: structured illumination microscopy (N-SIM) of double immunofluorescence; MCF-7 cells, formalin-fixed paraffin cell-block sections; two primary antibodies, Alexa Fluor 488 and 594 secondaries; % of ER dimer = yellow area/(yellow + green + red areas) x 100; homodimer also followed with 10 nM E2 for 15, 45, 90 min. The settings on record: remark: other sources report otherwise.

B1: estrogen receptor alpha (ERα), P03372 1-595 (receptor)
chain: T1 chain
Regarding B1, the figures for the % of ER dimer (N-SIM) in assay [1] and in assay [2] were 13.4% and 23%, respectively.
